T1: extracellular ActRIIb (SEQ ID NO: 74) fused to the N-terminus of hFc through a GGG linker (human, UniProt Q13705 20-134)
T1 construct: also called ActRIIb (41-155); wild-type extracellular ActRIIb; not shown: human Fc (hFc)
T1 sequence: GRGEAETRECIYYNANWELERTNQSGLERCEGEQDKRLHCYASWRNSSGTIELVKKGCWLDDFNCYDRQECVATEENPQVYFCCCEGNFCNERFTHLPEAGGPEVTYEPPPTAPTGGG

B1: growth differentiation factor 11 (GDF11) (ligand, UniProt O95390 299-407, looked up)
chain: NLGLDCDEHSSESRCCRYPLTVDFEAFGWDWIIAPKRYKANYCSGQCEYMFMQKYPHTHLVQQANPRGSAGPCCTPTKMSPINMLYFNDKQQIIYGKIPGMVVDRCGCS
B2: Activin B (ligand, UniProt P09529 293-407, looked up)
chain: GLECDGRTNLCCRQQFFIDFRLIGWNDWIIAPTGYYGNYCEGSCPAYLAGVPGSASSFHTAVVNQYRMRGLNPGTVNSCCIPTKLSTMSMLYFDDEYNIVKRDVPNMIVEECGCA
B3: BMP-9 (ligand, UniProt Q9UK05 320-429, looked up)
chain: SAGAGSHCQKTSLRVNFEDIGWDSWIIAPKEYEAYECKGGCFFPLADDVTPTKHAIVQTLVHLKFPTKVGKACCVPTKLSPISVLYKDDMGVPTLKYHYEGMSVAECGCR
notes: also called bone morphogenetic protein 9
B4: Activin A (ligand, UniProt P08476 311-426, looked up)
chain: GLECDGKVNICCKKQFFVSFKDIGWNDWIIAPSGYHANYCEGECPSHIAGTSGSSLSFHSTVINHYRMRGHSPFANLKSCCVPTKLRPMSMLYYDDGQNIIKKDIQNMIVEECGCS
B5: extracellular ActRIIa (SEQ ID NO: 73) fused to the N-terminus of hFc through a GGG linker (Fc fusion)
chain: AILGRSETQECLFFNANWEKDRTNQTGVEPCYGDKDKRRHCFATWKNISGSIEIVKQGCWLDDINCYDRTDCVEKKDSPEVYFCCCEGNMCNEKFSYFPEMEVTQPTSGGG
notes: also called ActRIIa (19-127); wild-type extracellular ActRIIa; not shown: human Fc (hFc)

What was measured:
Activin A [1] = molecular target: B4; experiment: SPR, Biacore 3000; receptor fusion captured on chip, ligand in solution
Activin B [2] = molecular target: B2; experiment: as above
BMP-9 = molecular target: B3; experiment: as above
[3] = molecular target: B1; experiment: as above
[4] = molecular target: B5; experiment: as above
[5] = molecular target: T1, extracellular ActRIIb (SEQ ID NO: 74) …; experiment: as above
Activin A [6] = molecular target: B4; experiment: SPR, Biacore 3000; receptor fusion captured on the chip by antibody, ligand run in a concentration series
Activin B [7] = molecular target: B2; experiment: as above
[8] = molecular target: B1; experiment: as above

Kd (Activin A [1]) [nM]	Kd (Activin B [2]) [nM]	Kd (BMP-9) [nM]	Kd [3] [nM]	Binder	further results
0.089	0.043	3.3	0.214	ActRIIa/bmax3 variant (SEQ ID NO: 72) fused to the N-terminus of hFc through a GGG linker (Fc fusion, not shown: human Fc (hFc)) GAILGRSETQECLFYNANWELERTNQTGVERCEGEKDKRLHCYATWRNISGSIEIVKKGCWLDDFNCYDRTDCVETEENPQVYFCCCEGNMCNEKFSYFPEMEVTQPTSNPVTPKGGG	
				B1	Kd [4]: 0.081 nM
				B2	Kd [5]: 0.023 nM
				B3	Kd [4]: 25 nM
				extracellular ActRIIb variant (SEQ ID NO: 149) fused to the N-terminus of hFc through a GGG linker (Fc fusion, also called ActRIIb/a variant; ActRIIb/a; not shown: human Fc (hFc)) GRGEAETRECIFYNANWEKDRTNQSGLEPCYGDQDKRRHCFASWKNSSGTIELVKQGCWLDDINCYDRQECVAKKDSPEVYFCCCEGNFCNERFTHLPEAGGPEVTYEPPPTAPTGGG	binding result (Activin A [6]): no binding; binding result (Activin B [7]): no binding; binding result [8]: no binding
				B4	Kd [5]: 0.063 nM
1	0.373			B5	
0.135	0.039	5	0.113	ActRIIa/bmax2 (SEQ ID NO: 71) fused to the N-terminus of hFc through a GGG linker (Fc fusion, also called ActRIIa/bmax2 variant; not shown: human Fc (hFc)) GAILGRSETQECLFYNANWELERTNQTGVERCEGEKDKRLHCYATWRNISGSIEIVKKGCWLDDFNCYDRTDCVETEENPQVYFCCCEGNMCNEKFSYFPEMEVTQPTSNPGGG	
0.213	0.0123	10	0.115	extracellular ActRIIa/bΔ9 variant (SEQ ID NO: 58) fused to the N-terminus of hFc through a GGG linker (Fc fusion, also called ActRIIA/BΔ9-Fc; not shown: human Fc (hFc)) GAILGRSETQECLFYNANWELDRTNQTGVERCEGEKDKRLHCYATWRNISGSIEIVKKGCWLDDFNCYDRTDCVETKENPQVYFCCCEGNMCNEKFSYFPEMEVTQPTSGGG	
0.31	0.088	17	0.114	extracellular ActRIIa/bΔ9 min variant (SEQ ID NO: 6) fused to the N-terminus of hFc through a GGG linker (Fc fusion, not shown: human Fc (hFc)) GAILGRSETQECLFYNANWELDRTNQTGVEPCEGEKDKRLHCFATWKNISGSIEIVKKGCWLDDINCYDRTDCVETKENPQVYFCCCEGNMCNEKFSYFPEMEVTQPTSGGG	
0.542	0.103	4	0.186	extracellular ActRIIa/b variant (SEQ ID NO: 69) fused to the N-terminus of hFc through a GGG linker (Fc fusion, also called ActRIIA/B-Fc; not shown: human Fc (hFc)) GAILGRSETQECLFYNANWELERTNQTGVERCEGEKDKRLHCYATWRNISGSIEIVKKGCWLDDFNCYDRTDCVETEENPQVYFCCCEGNMCNEKFSYFPEMEVTQPTSGGG	
0.375	0.254	14 to 20	0.394	ActRIIa/b-delta 9m4 (SEQ ID NO: 44) fused to the N-terminus of hFc through a GGG linker (Fc fusion, also called ActRIIa/bΔ9m4 variant; not shown: human Fc (hFc)) GAILGRSETQECLFYNANWELDRTNQTGVEPCEGEKDKRLHCYATWRNISGSIEIVKKGCWLDDFNCYDRTDCVETKENPQVYFCCCEGNMCNEKFSYFPEMEVTQPTSGGG	
0.17	0.104	13 to 18	0.222	ActRIIa/b-delta 9m2 (SEQ ID NO: 38) fused to the N-terminus of hFc through a GGG linker (Fc fusion, also called ActRIIa/bΔ9m2 variant; not shown: human Fc (hFc)) GAILGRSETQECLFYNANWELDRTNQTGVERCEGEKDKRLHCYATWRNISGSIEIVKKGCWLDDINCYDRTDCVETKENPQVYFCCCEGNMCNEKFSYFPEMEVTQPTSGGG	
0.071	0.0725	1.2	0.117	ActRIIa/b-delta 9m3 (SEQ ID NO: 41) fused to the N-terminus of hFc through a GGG linker (Fc fusion, also called ActRIIa/bΔ9m3 variant; not shown: human Fc (hFc)) GAILGRSETQECLFYNANWELDRTNQTGVERCEGEKDKRLHCFATWRNISGSIEIVKKGCWLDDFNCYDRTDCVETKENPQVYFCCCEGNMCNEKFSYFPEMEVTQPTSGGG	
0.242	0.282	26		ActRIIa/b+ (SEQ ID NO: 150) fused to the N-terminus of hFc through a GGG linker (Fc fusion, also called ActRIIab+ variant; not shown: human Fc (hFc)) GAILGRSETQECLFYNANWELERTNQTGVERCEGEKDKRLHCYATWRNISGSIEIVAKGCWLDDFNCYDRTDCVETEENPQVYFCCCEGNMCNEKFSYFPEMEVTQPTSGGG	
0.232	0.097	5.6	0.236	ActRIIa/bmax1 (SEQ ID NO: 70) fused to the N-terminus of hFc through a GGG linker (Fc fusion, also called ActRIIa/bmax1 variant; not shown: human Fc (hFc)) GAILGRSETQECLYYNANWELERTNQTGVERCEGEQDKRLHCYATWRNISGSIEIVKKGCWLDDFNCYDRTDCVETEENPQVYFCCCEGNMCNEKFSYFPEMEVTQPTSGGG	
